According to patent US10322164B2, “Modulation of cellular localization of cyclin C” (Rowan University, priority 2014, dated 2019):

How the values were obtained:
MCF-10A cells = assay: Cyclin C localization and mitochondrial fission in stressed MCF-10A cells; type: cell-based, human; conditions: H2O2 0.4 mM for 4 h
Method: (§1) (FIG. 15A) cyclin C localization was followed in MCF-7 or MCF-10A cells exposed to H2O2 (0.4 mM) for 4 h. (FIG. 15B) cyclin C levels were monitored by Western blot in MCF-7 cells treated with (+) or without (−) CCNC specific siRNAs. β-tubulin levels were followed as a loading control. (FIG. 15C) Viability was measured (viable stain assays) in the cell lines described in (FIG. 15B) following 4 h H2O2 exposure as indicated.
(§2) Cells were cultured on coverslips then fixed with 4% paraformaldehyde for 20 min, permeabilized with 0.2% Triton X-100 for 15 min, blocked with 2% BSA, and incubated with antibodies as indicated. The cells were mounted with DAPI-containing medium (Vector Labs) and the images were acquired with Nikon Eclipse 90i microscope equipped with a Retiga Exi CCD camera and NIS software for data analysis. DAPI (5 μg/ml) and Mitotracker Red (5 μg/ml) staining was used to identify nuclear and mitochondrial subcellular localization.
(§3) To evaluate the role of cyclin C in PCD execution, CCNC specific siRNAs were used to knockdown cyclin C. The knockdown efficiency was about 70% compared to control (FIG. 14C).

[1] = system: Drp1 phosphorylation at the activating serine (Ser616); assay: Drp1 Ser616 phosphorylation in Hela cells subjected to H2O2; type: cell-based, human
From the text: (§4) For phosphorylation, both inhibitory and stimulatory modifications have been identified. For example, cyclin B-Cdk1 phosphorylation at the G2/M boundary stimulates Drp1 activity to induce fission to promote mitochondrial partitioning during mitosis. This modification is clearly observed in cells arrested at the G2/M boundary following addition of the microtubule destabilizing agent nocodazole. Therefore, one possibility is that cytoplasmic cyclin C is now free to interact with another Cdk to modify Drp1 and induce fission. However, no increase was found in Drp1 phosphorylation at the activating serine (Ser616) in Hela cells subjected to H2O2 or in permeabilized CCNC^−/−MEF cells treated with GST-cyclin C. […] It is possible that the accelerated fission in these experiments results in de-phosphorylation of Ser616 helping attenuate mitochondrial fragmentation.

[2] = system: MCF-7 breast cancer cell line; assay: Cyclin C localization in stressed MCF-7 cells; type: cell-based, human; conditions: H2O2 0.4 mM for 4 h
Method: as §1, §2, §3

HeLa cells = assay: Cyclin C localization in stressed HeLa cells; type: cell-based, human
Method: (FIG. 14A) cyclin C localization in H2O2 stressed cultures as indicated. See (FIG. 14B) for enlarged images for 6 hr+H2O2 cells. (FIG. 14C) Knockdown efficiency of cyclin C by siRNA. con=scrambled siRNA control. Annexin V studies in the cultures described in (FIG. 14D). Graph illustrates % annexin V positive cells for cells with and without Cyclin C siRNA knockdown in the presence or absence of H2O2. Error bars=s.e.m. Three independent cultures were assayed for each sample.
as §2, §3

[3] = molecular target: T1, cyclin C-Med13 interaction (Mus musculus, UniProt Q5SWW4); assay: Cyclin C localization and mitochondrial morphology in MEF cells incubated with TAT-HAD or control peptide (indirect immunofluorescence); type: cell-based
T1 construct: endogenous in cells; host or cells: wild type (CCNC+/+) mouse embryonic fibroblasts, SV40 T antigen immortalized
T1 sequence (Q5SWW4 whole entry): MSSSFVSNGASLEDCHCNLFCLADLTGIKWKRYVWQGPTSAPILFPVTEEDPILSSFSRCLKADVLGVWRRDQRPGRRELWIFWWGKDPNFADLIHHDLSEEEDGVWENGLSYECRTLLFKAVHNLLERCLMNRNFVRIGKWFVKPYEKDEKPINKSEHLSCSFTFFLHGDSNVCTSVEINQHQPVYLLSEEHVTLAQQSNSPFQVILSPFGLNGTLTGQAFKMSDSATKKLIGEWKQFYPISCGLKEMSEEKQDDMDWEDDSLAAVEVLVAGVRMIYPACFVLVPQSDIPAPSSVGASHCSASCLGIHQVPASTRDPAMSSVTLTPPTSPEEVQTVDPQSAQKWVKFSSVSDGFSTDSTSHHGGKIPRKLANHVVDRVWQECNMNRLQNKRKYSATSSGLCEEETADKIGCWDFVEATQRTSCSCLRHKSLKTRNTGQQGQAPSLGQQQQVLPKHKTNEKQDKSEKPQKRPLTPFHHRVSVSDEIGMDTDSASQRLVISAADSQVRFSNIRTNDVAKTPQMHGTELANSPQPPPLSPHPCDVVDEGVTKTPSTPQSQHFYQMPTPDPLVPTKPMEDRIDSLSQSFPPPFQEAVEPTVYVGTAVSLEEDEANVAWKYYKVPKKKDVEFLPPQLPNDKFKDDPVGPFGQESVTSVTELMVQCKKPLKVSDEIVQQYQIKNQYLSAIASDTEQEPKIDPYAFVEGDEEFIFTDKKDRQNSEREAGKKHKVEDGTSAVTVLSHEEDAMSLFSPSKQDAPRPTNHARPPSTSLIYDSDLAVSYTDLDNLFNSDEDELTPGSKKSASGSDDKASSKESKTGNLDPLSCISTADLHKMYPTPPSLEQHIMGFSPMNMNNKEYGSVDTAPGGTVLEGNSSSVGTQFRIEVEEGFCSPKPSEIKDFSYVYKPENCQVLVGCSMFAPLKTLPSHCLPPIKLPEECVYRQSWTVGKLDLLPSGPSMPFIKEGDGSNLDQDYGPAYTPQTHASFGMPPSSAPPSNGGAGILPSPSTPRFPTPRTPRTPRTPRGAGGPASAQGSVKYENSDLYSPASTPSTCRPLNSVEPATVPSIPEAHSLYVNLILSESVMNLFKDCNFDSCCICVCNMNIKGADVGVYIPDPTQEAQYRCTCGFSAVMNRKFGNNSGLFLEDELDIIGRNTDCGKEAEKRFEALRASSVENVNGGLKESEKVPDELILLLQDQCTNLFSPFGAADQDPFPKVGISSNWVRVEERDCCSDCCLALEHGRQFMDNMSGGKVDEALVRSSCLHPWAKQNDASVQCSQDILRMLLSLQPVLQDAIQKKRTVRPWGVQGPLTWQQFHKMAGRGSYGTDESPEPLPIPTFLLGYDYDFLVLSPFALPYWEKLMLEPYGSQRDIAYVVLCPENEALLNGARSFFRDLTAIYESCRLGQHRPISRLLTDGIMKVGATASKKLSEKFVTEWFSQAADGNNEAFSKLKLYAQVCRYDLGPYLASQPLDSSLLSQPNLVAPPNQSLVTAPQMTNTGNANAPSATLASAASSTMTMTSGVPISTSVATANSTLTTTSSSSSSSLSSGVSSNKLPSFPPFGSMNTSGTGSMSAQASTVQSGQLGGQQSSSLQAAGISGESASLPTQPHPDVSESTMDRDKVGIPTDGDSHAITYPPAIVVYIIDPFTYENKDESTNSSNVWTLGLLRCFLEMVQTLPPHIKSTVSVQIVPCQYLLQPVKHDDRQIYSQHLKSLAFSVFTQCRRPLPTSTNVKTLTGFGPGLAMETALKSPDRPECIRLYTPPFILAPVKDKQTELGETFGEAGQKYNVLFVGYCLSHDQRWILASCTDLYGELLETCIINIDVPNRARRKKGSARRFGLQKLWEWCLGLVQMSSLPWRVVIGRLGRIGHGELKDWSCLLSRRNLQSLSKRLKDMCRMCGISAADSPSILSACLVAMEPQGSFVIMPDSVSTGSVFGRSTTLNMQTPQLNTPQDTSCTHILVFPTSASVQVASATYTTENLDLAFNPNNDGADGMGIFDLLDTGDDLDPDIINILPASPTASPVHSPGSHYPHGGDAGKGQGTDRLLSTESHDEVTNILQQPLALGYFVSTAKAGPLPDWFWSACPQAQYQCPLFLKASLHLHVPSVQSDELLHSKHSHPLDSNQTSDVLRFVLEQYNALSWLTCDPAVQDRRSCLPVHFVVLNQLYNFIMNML
Method: The amino terminal sequences of cyclin C from the indicated organisms. Homologies are shaded. Boxed region is targeted using the HIV TAT basic domain fused to the 19 amino acid (aa) peptide indicated by the line above the sequence. (FIG. 11B) Representative images of MEF cells incubated with TAT-HAD peptide or control (25 μM) for three hours then fixed and stained for the nucleus (DAPI), mitochondria (MitoTracker Red) and cyclin C (α-cyclin C). Arrows indicate regions of interaction between cyclin C and mitochondria.
as §2
CCNC^+/+ and CCNC^−/− MEF cells were treated with 0.4 mM H2O2 for 4 hrs. Mitochondrial morphology was monitored by MitoTracker Red staining. The cells were imaged with the 60× objective on the Nikon Eclipse C1Ti confocal microscope equipped with a Ds-Qi1MC CCD camera. The TAT-HAD peptide was added to log phase unstressed wild type MEF cultures for 3 h prior to image acquisition.
A highly conserved region of cyclin C has been identified [Cooper, K. F. and R. Strich, Functional analysis of the Ume3p/Srb11p-RNA polymerase II holoenzyme interaction. Gene Expr, 1999. 8(1): p. 43-57; Cooper, K. F., S. Khakhina, S. K. Kim, and R. Strich, Stress-Induced Nuclear-to-Cytoplasmic Translocation of Cyclin C Promotes Mitochondrial Fission in Yeast, Dev Cell, 2014. 28: p. 161-173.], boxed, FIG. 11A) that is responsible for Med13 binding in yeast. […]

[4] = system: permeabilized CCNC^−/−MEF cells; assay: Mitochondrial fragmentation in digitonin-permeabilized CCNC-/- MEF cells after adding GST fusion proteins (live confocal microscopy); type: cell-based, mouse
Method: To examine whether cyclin C was sufficient to induce fission or if additional stress-specific signals were required, permeabilized CCNC^−/−MEF cells were used and E. coli purified human GST-cyclin C (Hs GST-cyclin C). The CCNC^−/−null cell line was employed to avoid any contribution from endogenous cyclin C. GST-cyclin C or GST (˜4 nM) was added to digitonin treated cells and mitochondrial morphology was monitored in living cells by confocal microscopy. Images were collected for 18 min at 2 min increments. […] Deconvolved images reveled little detectable changes in mitochondrial morphology in the GST treated cultures up to 18 min (9.3%). […] To determine if this function is conserved, the activity of the yeast cyclin C fused to GST (GST-cyclin C Sc) was also examined. […] To determine if the quantity of GST-cyclin C added was rate limiting, this experiment was repeated with twice the GST-cyclin C Hs concentration as before.

[5] = system: Drp1 phosphorylation at the activating serine (Ser616); assay: Drp1 Ser616 phosphorylation in permeabilized CCNC-/- MEF cells treated with GST-cyclin C; type: cell-based, mouse
From the text: as §4

[6] = permeabilized CCNC-/- MEF cells

OO [H2O2]
cyclin C relocalization and mitochondrial fission (MCF-10A cells): normal cyclin C relocalization and mitochondrial fission
Drp1 phosphorylation at Ser616 [1]: no increase
cyclin C localization [2]: remained nuclear
cyclin C localization (HeLa cells): translocated from the nucleus to the cytoplasm

N.N.[Cl][Pt][Cl] [cisplatin]
cyclin C localization [2]: remained nuclear

YGRKKRRQRRRWILDKQDLLKERQKDL (SEQ ID NO:6) (YGRKKRRQRRRWILDKQDLLKERQKDLKFL) [TAT-HAD peptide, HIV TAT basic domain fused to the cyclin C holoenzyme association domain (HAD) peptide]
time within which the translocation/fragmentation phenotype was lost [3]: ≤ 24 h
cyclin C localization ([3]; peptide 25 μM, three hours): nuclear to cytoplasmic cyclin C translocation
mitochondrial morphology ([3]; peptide 25 μM, three hours, MitoTracker Red): abnormal fragmented morphology

B1: GST-cyclin C: E. coli purified human GST-cyclin C (protein, UniProt P24863 1-283, looked up)
Cyclin-C: MAGNFWQSSHYLQWILDKQDLLKERQKDLKFLSEEEYWKLQIFFTNVIQALGEHLKLRQQVIATATVYFKRFYARYSLKSIDPVLMAPTCVFLASKVEEFGVVSNTRLIAAATSVLKTRFSYAFPKEFPYRMNHILECEFYLLELMDCCLIVYHPYRPLLQYVQDMGQEDMLLPLAWRIVNDTYRTDLCLLYPPFMIALACLHVACVVQQKDARQWFAELSVDMEKILEIIRVILKLYEQWKNFDERKEMATILSKMPKPKPPPNSEGEQGPNGSQNSSYSQS
modifications: GST tag
time to total mitochondrial fragmentation ([4]; twice the GST-cyclin C Hs concentration): ≤ 8 min
time at which significant mitochondrial fragmentation began ([4]; ~4 nM protein): ≤ 10 min
percentage of culture exhibiting fragmented mitochondria by 18 min ([4]; ~4 nM protein, digitonin treated cells, 8-10% fragmented prior to treatment): 94%
Drp1 phosphorylation at Ser616 [5, 6]: no increase
quantitation of the Ser616 phosphorylation signal ([5]; permeabilized cells): reduced

B2: GST-cyclin C Sc: yeast cyclin C fused to GST (protein, UniProt P47821 1-323, looked up)
RNA polymerase II holoenzyme …: MSGSFWTSTQRHHWQYTKASLAKERQKLWLLECQLFPQGLNIVMDSKQNGIEQSITKNIPITHRDLHYDKDYNLRIYCYFLIMKLGRRLNIRQYALATAHIYLSRFLIKASVREINLYMLVTTCVYLACKVEECPQYIRTLVSEARTLWPEFIPPDPTKVTEFEFYLLEELESYLIVHHPYQSLKQIVQVLKQPPFQITLSSDDLQNCWSLINDSYINDVHLLYPPHIIAVACLFITISIHGKPTKGSSLASAASEAIRDPKNSSSPVQIAFNRFMAESLVDLEEVMDTIQEQITLYDHWDKYHEQWIKFLLHTLYLRPASAI
modifications: GST tag
efficiency of inducing mitochondrial fission compared with human cyclin C [4, 6]: as efficient inducing mitochondrial fission as the human cyclin C
